The target of the data set is T1, Chromogenic polypeptide Val-Arg-[pABA]-Gly.
T1 chain: VRXG

B1: papain (protein)
chain: IPEYVDWRQKGAVTPVKNQGSCGSCWAFSAVVTIEGIIKIRTGNLNEYSEQELLDCDRRSYGCNGGYPWSALQLVAQYGIHYRNTYPYEGVQRYCRSREKGPYAAKTDGVRQVQPYNEGALLYSIANQPVSVVLEAAGKDFQLYRGGIFVGPCGNKVDHAVAAVGYGPNYILIKNSWGTGWGENGYIRIKRGTGNSYGVCGLYTSSFYPVKN
On to B1, for which the “colour change with DMAC after proteolysis (booklet assay)” value is given as “after ten minutes DMAC changed from yellow to red”.

The values above are taken from patent US8993253.
